{"source": "patent US20260201396", "about": "“New LoxPsym Sites for Large-Scale Orthogonal Cre-Mediated Recombination” (VIB VZW, published 2026)"}
{"target": "T1, Cre recombinase (Punavirus P1)", "T1 chain": "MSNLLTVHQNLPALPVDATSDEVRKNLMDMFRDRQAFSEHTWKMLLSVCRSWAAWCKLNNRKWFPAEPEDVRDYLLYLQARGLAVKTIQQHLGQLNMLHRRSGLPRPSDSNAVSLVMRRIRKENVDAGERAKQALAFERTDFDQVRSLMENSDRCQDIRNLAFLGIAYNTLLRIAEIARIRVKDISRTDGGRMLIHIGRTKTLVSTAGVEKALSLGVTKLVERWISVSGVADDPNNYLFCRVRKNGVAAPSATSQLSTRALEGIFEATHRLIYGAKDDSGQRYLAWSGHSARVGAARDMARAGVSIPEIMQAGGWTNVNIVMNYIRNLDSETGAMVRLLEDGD", "test": "cell_activity; as above", "description": "Similar to the development of the original LoxPsym site by Hoess et al. (1986 J Cell Biochem), we edited the spacer of the LoxP site to obtain new non-directional recombination sites. In doing so, we focused on altering the first three nucleotides of the spacer (FIG. 2), as it was shown before that changing the nucleotides at position 4 and 5 of the spacer (T and A respectively) prevents recombination (Hoess et al 1986). The last three nucleotides were adapted accordingly to ensure the spacer remained palindromic. As such, we were able to design maximally 63 new potential LoxPsym sites. To test if the Cre enzyme was still able to recombine the new LoxPsym variants, we conducted a fluorescent-based assay in yeast via genomic integration of a fluorescence cassette which was flanked by identical LoxPsym variants at both sites (FIGS. 3A and 3C). Recombination of functional LoxPsym variants enables the deletion of the fluorescence cassette. The fraction of non-fluorescent cells in the population after induction of Cre-mediated recombination, was used to determine the recombination efficiency of the new LoxPsym sites. To verify if this set-up is valid for estimation of the recombination efficiency, the dual-fluorescent-reporter system shown in FIG. 3A was used to assess the frequency of inversion/deletion over time. […] Recombination efficiencies largely altered between different LoxPsym variants (Table 1). 63 new LoxPsym variants were obtained with altering recombination efficiencies ranging from 13% to 89%.", "units": {"activity": "%"}}
{"binder": "LoxPsym-GTG (dsDNA) DNA 1: ATAACTTCGTATAGTGTACACTATACGAAGTTAT DNA 2: ATAACTTCGTATAGTGTACACTATACGAAGTTAT", "activity": 40.3}
{"binder": "LoxPsym-CTG (dsDNA) DNA 1: ATAACTTCGTATACTGTACAGTATACGAAGTTAT DNA 2: ATAACTTCGTATACTGTACAGTATACGAAGTTAT", "activity": 53.1}
{"binder": "LoxPsym-CTT (dsDNA) DNA 1: ATAACTTCGTATACTTTAAAGTATACGAAGTTAT DNA 2: ATAACTTCGTATACTTTAAAGTATACGAAGTTAT", "activity": 34.8}
{"binder": "LoxPsym-AGC (dsDNA) DNA 1: ATAACTTCGTATAAGCTAGCTTATACGAAGTTAT DNA 2: ATAACTTCGTATAAGCTAGCTTATACGAAGTTAT", "activity": 32.6}
{"binder": "LoxPsym-AGA (dsDNA) DNA 1: ATAACTTCGTATAAGATATCTTATACGAAGTTAT DNA 2: ATAACTTCGTATAAGATATCTTATACGAAGTTAT", "activity": 35.1}
{"binder": "LoxPsym-ACA (dsDNA) DNA 1: ATAACTTCGTATAACATATGTTATACGAAGTTAT DNA 2: ATAACTTCGTATAACATATGTTATACGAAGTTAT", "activity": 38.3}
{"binder": "LoxPsym-AAG (dsDNA) DNA 1: ATAACTTCGTATAAAGTACTTTATACGAAGTTAT DNA 2: ATAACTTCGTATAAAGTACTTTATACGAAGTTAT", "activity": 44.1}
{"binder": "LoxPsym-AAC (dsDNA) DNA 1: ATAACTTCGTATAAACTAGTTTATACGAAGTTAT DNA 2: ATAACTTCGTATAAACTAGTTTATACGAAGTTAT", "activity": 46}
{"binder": "LoxPsym-GGG (dsDNA) DNA 1: ATAACTTCGTATAGGGTACCCTATACGAAGTTAT DNA 2: ATAACTTCGTATAGGGTACCCTATACGAAGTTAT", "activity": 45.6}
{"binder": "LoxPsym-ACG (dsDNA) DNA 1: ATAACTTCGTATAACGTACGTTATACGAAGTTAT DNA 2: ATAACTTCGTATAACGTACGTTATACGAAGTTAT", "activity": 51.1}
{"binder": "LoxPsym-TTC (dsDNA) DNA 1: ATAACTTCGTATATTCTAGAATATACGAAGTTAT DNA 2: ATAACTTCGTATATTCTAGAATATACGAAGTTAT", "activity": 62.3}
{"binder": "LoxPsym-GGC (dsDNA) DNA 1: ATAACTTCGTATAGGCTAGCCTATACGAAGTTAT DNA 2: ATAACTTCGTATAGGCTAGCCTATACGAAGTTAT", "activity": 43.6}
{"binder": "LoxPsym-CGA (dsDNA) DNA 1: ATAACTTCGTATACGATATCGTATACGAAGTTAT DNA 2: ATAACTTCGTATACGATATCGTATACGAAGTTAT", "activity": 54.4}
{"binder": "LoxPsym-GTC (dsDNA) DNA 1: ATAACTTCGTATAGTCTAGACTATACGAAGTTAT DNA 2: ATAACTTCGTATAGTCTAGACTATACGAAGTTAT", "activity": 44.3}
{"binder": "LoxPsym-ATT (dsDNA) DNA 1: ATAACTTCGTATAATTTAAATTATACGAAGTTAT DNA 2: ATAACTTCGTATAATTTAAATTATACGAAGTTAT", "activity": 42.2}
{"binder": "LoxPsym-TGA (dsDNA) DNA 1: ATAACTTCGTATATGATATCATATACGAAGTTAT DNA 2: ATAACTTCGTATATGATATCATATACGAAGTTAT", "activity": 58.8}
{"binder": "LoxPsym-ATA (dsDNA) DNA 1: ATAACTTCGTATAATATATATTATACGAAGTTAT DNA 2: ATAACTTCGTATAATATATATTATACGAAGTTAT", "activity": 43.1}
{"binder": "LoxPsym-ACC (dsDNA) DNA 1: ATAACTTCGTATAACCTAGGTTATACGAAGTTAT DNA 2: ATAACTTCGTATAACCTAGGTTATACGAAGTTAT", "activity": 41.4}
{"binder": "LoxPsym-AGT (dsDNA) DNA 1: ATAACTTCGTATAAGTTAACTTATACGAAGTTAT DNA 2: ATAACTTCGTATAAGTTAACTTATACGAAGTTAT", "activity": 43.4}
{"binder": "LoxPsym-ATC (dsDNA) DNA 1: ATAACTTCGTATAATCTAGATTATACGAAGTTAT DNA 2: ATAACTTCGTATAATCTAGATTATACGAAGTTAT", "activity": 56.5}
{"binder": "LoxPsym-AGG (dsDNA) DNA 1: ATAACTTCGTATAAGGTACCTTATACGAAGTTAT DNA 2: ATAACTTCGTATAAGGTACCTTATACGAAGTTAT", "activity": 49.1}
{"binder": "LoxPsym-CTC (dsDNA) DNA 1: ATAACTTCGTATACTCTAGAGTATACGAAGTTAT DNA 2: ATAACTTCGTATACTCTAGAGTATACGAAGTTAT", "activity": 38.2}
{"binder": "LoxPsym-CGT (dsDNA) DNA 1: ATAACTTCGTATACGTTAACGTATACGAAGTTAT DNA 2: ATAACTTCGTATACGTTAACGTATACGAAGTTAT", "activity": 46.9}
{"binder": "LoxPsym-TCA (dsDNA) DNA 1: ATAACTTCGTATATCATATGATATACGAAGTTAT DNA 2: ATAACTTCGTATATCATATGATATACGAAGTTAT", "activity": 39.9}
{"binder": "LoxPsym-CAA (dsDNA) DNA 1: ATAACTTCGTATACAATATTGTATACGAAGTTAT DNA 2: ATAACTTCGTATACAATATTGTATACGAAGTTAT", "activity": 59.7}
{"binder": "LoxPsym-TCT (dsDNA) DNA 1: ATAACTTCGTATATCTTAAGATATACGAAGTTAT DNA 2: ATAACTTCGTATATCTTAAGATATACGAAGTTAT", "activity": 43.3}
{"binder": "LoxPsym-CCT (dsDNA) DNA 1: ATAACTTCGTATACCTTAAGGTATACGAAGTTAT DNA 2: ATAACTTCGTATACCTTAAGGTATACGAAGTTAT", "activity": 51.2}
{"binder": "LoxPsym-CTA (dsDNA) DNA 1: ATAACTTCGTATACTATATAGTATACGAAGTTAT DNA 2: ATAACTTCGTATACTATATAGTATACGAAGTTAT", "activity": 34.1}
{"binder": "LoxPsym-GAA (dsDNA) DNA 1: ATAACTTCGTATAGAATATTCTATACGAAGTTAT DNA 2: ATAACTTCGTATAGAATATTCTATACGAAGTTAT", "activity": 46.2}
{"binder": "LoxPsym-TCG (dsDNA) DNA 1: ATAACTTCGTATATCGTACGATATACGAAGTTAT DNA 2: ATAACTTCGTATATCGTACGATATACGAAGTTAT", "activity": 59}
{"binder": "LoxPsym-CCA (dsDNA) DNA 1: ATAACTTCGTATACCATATGGTATACGAAGTTAT DNA 2: ATAACTTCGTATACCATATGGTATACGAAGTTAT", "activity": 53.9}
{"binder": "LoxPsym-GCA (dsDNA) DNA 1: ATAACTTCGTATAGCATATGCTATACGAAGTTAT DNA 2: ATAACTTCGTATAGCATATGCTATACGAAGTTAT", "activity": 59.1}
{"binder": "LoxPsym-TTT (dsDNA) DNA 1: ATAACTTCGTATATTTTAAAATATACGAAGTTAT DNA 2: ATAACTTCGTATATTTTAAAATATACGAAGTTAT", "activity": 44.5}
